Test results from patent US20200261490A1 (AARHUS UNIVERSITET, published 2020).

Legend:
[1] = biological target: T1, recombinant human stanniocalcin 1, C-terminally myc-his-tagged (human, UniProt P52823 34-247); assay: SPR (Biacore T200); PAPP-A captured by immobilised mAb 234-5, purified STC1 as analyte, global 1:1 Langmuir fit
Procedure: (§1) Surface plasmon resonance experiments were carried out on a Biacore T200 (GE Healthcare). Using amine coupling, purified monoclonal antibody 234-5 was immobilized in flow cells (FC) 3 and 4 of a Series S CM5 Sensor Chip (GE Healthcare). To reach a coupling density of 5,000 response units (RU), the antibody was diluted to 30 μg ml⁻¹ in 10 mM sodium acetate, pH 4.75. Remaining active groups were blocked by a 7 min injection of 1 M ethanolamine, pH 8.0. […] The association phase was 180 s, followed by a 1,000 s dissociation phase. At the end of each binding cycle, both surfaces were regenerated by a 40 s injection of 0.1 M glycine, pH 2.5, and 0.5 M guanidine hydrochloride. […] Binding analysis was performed at 25° C., and data were collected at a rate of 10 Hz. Recorded signals were subtracted the background signal, as determined by the response obtained from the reference cell. Global fitting of a 1:1 Langmuir model was performed, using the Biacore T200 Evaluation Software, version 1.0.

[2] = biological target: T1, recombinant human stanniocalcin 1, …; assay: SPR (Biacore T200), PAPP-A captured by immobilised mAb 234-5, STC1 injected at 0.20-6.26 nM, global 1:1 Langmuir fit
Procedure: as §1

B1: recombinant human PAPP-A (pregnancy-associated plasma protein-A, pappalysin-1) (enzyme)
chain: EARGATEEPSPPSRALYFSGRGEQLRLRADLELPRDAFTLQVWLRAEGGQRSPAVITGLYDKCSYISRDRGWVVGIHTISDQDNKDPRYFFSLKTDRARQVTTINAHRSYLPGQWVYLAATYDGQFMKLYVNGAQVATSGEQVGGIFSPLTQKCKVLMLGGSALNHNYRGYIEHFSLWKVARTQREILSDMETHGAHTALPQLLLQENWDNVKHAWSPMKDGSSPKVEFSNAHGFLLDTSLEPPLCGQTLCDNTEVIASYNQLSSFRQPKVVRYRVVNLYEDDHKNPTVTREQVDFQHHQLAEAFKQYNISWELDVLEVSNSSLRRRLILANCDISKIGDENCDPECNHTLTGHDGGDCRHLRHPAFVKKQHNGVCDMDCNYERFNFDGGECCDPEITNVTQTCFDPDSPHRAYLDVNELKNILKLDGSTHLNIFFAKSSEEELAGVATWPWDKEALMHLGGIVLNPSFYGMPGHTHTMIHEIGHSLGLYHVFRGISEIQSCSDPCMETEPSFETGDLCNDTNPAPKHKSCGDPGPGNDTCGFHSFFNTPYNNFMSYADDDCTDSFTPNQVARMHCYLDLVYQGWQPSRKPAPVALAPQVLGHTTDSVTLEWFPPIDGHFFERELGSACHLCLEGRILVQYASNASSPMPCSPSGHWSPREAEGHPDVEQPCKSSVRTWSPNSAVNPHTVPPACPEPQGCYLELEFLYPLVPESLTIWVTFVSTDWDSSGAVNDIKLLAVSGKNISLGPQNVFCDVPLTIRLWDVGEEVYGIQIYTLDEHLEIDAAMLTSTADTPLCLQCKPLKYKVVRDPPLQMDVASILHLNRKFVDMDLNLGSVYQYWVITISGTEESEPSPAVTYIHGSGYCGDGIIQKDQGEQCDDMNKINGDGCSLFCRQEVSFNCIDEPSRCYFHDGDGVCEEFEQKTSIKDCGVYTPQGFLDQWASNASVSHQDQQCPGWVIIGQPAASQVCRTKVIDLSEGISQHAWYPCTISYPYSQLAQTTFWLRAYFSQPMVAAAVIVHLVTDGTYYGDQKQETISVQLLDTKDQSHDLGLHVLSCRNNPLIIPVVHDLSQPFYHSQAVRVSFSSPLVAISGVALRSFDNFDPVTLSSCQRGETYSPAEQSCVHFACEKTDCPELAVENASLNCSSSDRYHGAQCTVSCRTGYVLQIRRDDELIKSQTGPSVTVTCTEGKWNKQVACEPVDCSIPDHHQVYAASFSCPEGTTFGSQCSFQCRHPAQLKGNNSLLTCMEDGLWSFPEALCELMCLAPPPVPNADLQTARCRENKHKVGSFCKYKCKPGYHVPGSSRKSKKRAFKTQCTQDGSWQEGACVPVTCDPPPPKFHGLYQCTNGFQFNSECRIKCEDSDASQGLGSNVIHCRKDGTWNGSFHVCQEMQGQCSVPNELNSNLKLQCPDGYAIGSECATSCLDHNSESIILPMNVTVRDIPHWLNPTRVERVVCTAGLKWYPHPALIHCVKGCEPFMGDNYCDAINNRAFCNYDGGDCCTSTVKTKKVTPFPMSCDLQGDCACRDPQAQEHSRKDLRGYSHG
notes: Secreted from transfected HEK293T cells and used in culture medium; also called wt PAPP-A; huPAPP-A
Kd [1]: 0.075 nM | Kd [2]: 0.0749 nM | koff [2]: 0.000208 s⁻¹ | kon [2]: 2.78e+06 M⁻¹ s⁻¹
